US7541156B1, “Method of identifying antinociceptive compounds using protease activated receptor-2” (priority 2000, dated 2009)
No end group written: not given here.

Columns and labels:
mouse Par2 = target: T1, mouse Par2 (Mus musculus, UniProt P55086); details: expressed in frog oocytes; cited from earlier work
T1 construct: host or cells: frog oocytes
T1 sequence (P55086 26-399): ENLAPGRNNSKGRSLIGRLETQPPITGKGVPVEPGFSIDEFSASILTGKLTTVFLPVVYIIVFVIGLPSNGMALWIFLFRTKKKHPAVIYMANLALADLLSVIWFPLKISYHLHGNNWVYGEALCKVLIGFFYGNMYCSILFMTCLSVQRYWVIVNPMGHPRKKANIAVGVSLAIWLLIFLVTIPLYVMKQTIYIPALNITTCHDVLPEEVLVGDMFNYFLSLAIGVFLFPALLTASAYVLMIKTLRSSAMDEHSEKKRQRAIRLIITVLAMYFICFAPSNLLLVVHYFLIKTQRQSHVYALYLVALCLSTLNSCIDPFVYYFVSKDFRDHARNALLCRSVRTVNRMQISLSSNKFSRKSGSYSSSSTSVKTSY

[1] = system: pancreatic afferent neurons / spinal segments T8-T10; assay: c-FOS expression in spinal cord segments after pancreatic intraductal injection; type: in vivo, rat; details: peptide 100 μM intraductal, followed 30 min later by Capsaicin 0.5 mg/kg; 2.5 hours
Procedure: Intraductal (pancreatic duct) injection. To administer the necessary peptides directly into the rat pancreatic duct we followed a modified protocol, previously described by Kim et al. (1996). In brief, rats were anesthetized i.p. with nembutal sodium (Abbot Laboratories, Chicago, Ill.) (50 mg/kg body weight). The peritoneum was incised to expose the duodenum and the duodenal loop was pulled out. The pancreatic duct entering the duodenum was identified under dissecting microscope and a small niche was made into the duct with a 30-gauge needle. A polyethylene 10 tubing (0.61 mm outer diameter) (Becton Dickinson and Company, Franklin Lakes, N.J.) was guided into the duct and tied to secure its position. The common bile duct was ligated close to the liver to prevent entry of the injected substance into the liver. Similarly the duct was ligated near its entry into the duodenum. The position of the tube into the pancreatic duct was confirmed by freely flowing bile through the tubing. […] Thirty minutes later Capsaicin 0.5 mg/kg (total volume 500 μl) or vehicle (1×PBS, 10% ETOH, 1% Tween) was injected to half of the AcPep or CoPep injected rats. Three rats were included in each treatment group (n=3 for number of experiments). The tubing was carefully removed and bile flow from the liver into the duodenum was re-established. The abdominal cavity was closed with sutures. Rats were sacrificed 2.5 hrs after the initial injection.
C-fos staining. Rats were anesthetized with sodium pentobarbital (50 mg/kg i.p.) and perfused with 200 mls PBS followed by 500 mls ice-cold freshly prepared 4% paraformaldehyde in PBS. Spinal cord (level T5-T13) was removed, post-fixed in 4% paraformaldehyde for 18 hrs at 4° C. and placed in PBS (pH 7.4) containing 30% sucrose for 24 hrs at 4° C. Frozen sections (40 μm) were cut on a cryostat and stored as floating sections in PBS at 4° C. Every third section was stained for c-fos with a rabbit polyclonal serum, 1:1000 dilution, (c-fos, Ab-5, Oncogene Research Products) utilizing manufacturer's protocol. Antibody staining was visualized using a biotinylated secondary antisera and Vectastain ABC peroxidase kit with DAB as substrate. Sections were mounted on Superfrost Plus slides (VWR Scientific, West Chester, Pa.) and dehydrated. The number of c-FOS immunoreactive (IR) neurons were counted in 10 randomly chosen sections per segment under brightfield illumination and then averaged.
(§1) Statistics. Release data are presented as the mean± standard error of the mean (SEM) of wells from three separate experiments. […] Intraductal injection studies were analyzed using a repeated measure ANOVA and individual means were compared using a Newman-Keuls multiple comparison test. […]

[2] = system: cultured adult rat thoracic DRG neurons; assay: CGRP release assay in cultured DRG neurons; type: cell-based; details: 10 min pretreatment with peptide 10 μM, mean of wells, three experiments
Procedure: Cell Culture. Primary cultures of rat DRG neurons were prepared from male adult Sprague Dawley rats (200-250 gm). Following enzymatic treatment and dissociation, neurons were spun through a percoll cushion (Hofbauer et al. 1998) and were plated at a density of 10,000-20,000 neurons/well of a 48 well tissue culture plate. Cultures were maintained in DME+10% FCS supplemented with penicillin/streptomycin, 150 μM uridine and 50 μM 5-fluoro-2-deoxyuridine (Nguyen et al. 1999). NGF (murine, recombinant, 2.5S; Promega, Madison, Wis.) was used at 50 ng/ml. Neurons were treated for five days before release experiments or Calcium-imaging studies were performed.
CGRP release assay. Immunoreactive calcitonin gene-related peptide (IR-CGRP) release from DRG cultures was performed as described by Hingtgen et al. (1995). Briefly, neuron cultures were washed with Release Buffer (RB) (25 mM Hepes, pH 7.4, 135 mM NaCl, 3.5 mM KCl, 2.5 mM CaCl2, 1 mM MgCl2, 3.3 mM Glucose, 0.1% BSA, 1 μM phosphoamidon), and were incubated for 10 min at 37° C. in RB plus 0.1% ethanol (Capsaicin vehicle) to measure basal CGRP release. Fresh RB containing the appropriate concentration of activating peptide (AcPep) or control peptide (CoPep) was added for an additional 10 minutes. Peptide treatment was followed by a 10 minute incubation with an appropriate dose of Capsaicin or KCl. IR-CGRP released by neurons was measured by ELISA. Activating peptide and control peptide were prepared by standard solid phase synthesis procedures by the UTMB Core Protein Facility.
CGRP Quantification. CGRP was quantified in a standard sandwich ELISA. In brief, 96-well “U” bottom microtiter ELISA plates (Dynex, Chantilly, Va.) were coated with affinity purified polyclonal rabbit antibody to rat CGRP (Peninsula Labs, Belmont, Calif.) at 3 μg/ml in 0.125M borate buffered saline (pH 8.1) (100 μl/well). The plates were incubated overnight at 37° C. The next day, the plates were washed three times with saline containing 0.05% Tween-20. Purified rat CGRP (Peninsula Labs) was used at a previously standardized concentration range of 25-1 ng/ml in a four-fold dilution to generate a standard curve. An equal volume of the sample was added in duplicate to a seventy-five μl/well of Tween-PBS (pH 7.1) and the plates were incubated for two hours on a shaker at room temperature. The plates were washed 3 times with Tween-PBS and 100 μl/well (0.2 mg/ml; 1:500 dilution) of in-house biotinylated, rabbit anti rat CGRP IgG (Peninsula Labs) was applied and incubated for two hours at room temperature. After three washes 150 μl of 1:1000 diluted streptavidine-horseradish peroxidase conjugate (Zymed, San Fransisco, Calif.) was added to each well and the plates were incubated for 90 min at room temperature. One-hundred-fifty μl/well of the substrate ortho-phenylene diamine dihydrochloride (Sigma Chemicals, St. Louis, Mo.) 0.4 mg/ml in citrate buffer (pH 4.9) was added after plates were washed three more times. Forty μl/100 ml of 30% H2O2 was added fresh to the citrate buffer just before adding to the wells to activate the coloring reaction. The reaction was stopped with 5N H2SO4 (50 μl/well) and the plates were read at 490 nm in an automated ELISA reader (Bio-Tek Instruments, Inc., Winooski, VE). The OD values were plotted against the CGRP standard curve and CGRP immunoreactivity was quantified using the appropriate formula and expressed as nanogram/ml.
as §1, with “experiments. To compare the effects of activating peptide and control peptide on subsequent evoked release, an overall test based on the analysis of variance was performed (ANOVA).” for “experiments.”, “test. Significance levels were set at p<0.05.” for “test.”

PAR-1 = target: T2, PAR-1 (Homo sapiens, UniProt P25116); details: Blackhart et al. 1996; cited from earlier work
T2 sequence (P25116 22-425): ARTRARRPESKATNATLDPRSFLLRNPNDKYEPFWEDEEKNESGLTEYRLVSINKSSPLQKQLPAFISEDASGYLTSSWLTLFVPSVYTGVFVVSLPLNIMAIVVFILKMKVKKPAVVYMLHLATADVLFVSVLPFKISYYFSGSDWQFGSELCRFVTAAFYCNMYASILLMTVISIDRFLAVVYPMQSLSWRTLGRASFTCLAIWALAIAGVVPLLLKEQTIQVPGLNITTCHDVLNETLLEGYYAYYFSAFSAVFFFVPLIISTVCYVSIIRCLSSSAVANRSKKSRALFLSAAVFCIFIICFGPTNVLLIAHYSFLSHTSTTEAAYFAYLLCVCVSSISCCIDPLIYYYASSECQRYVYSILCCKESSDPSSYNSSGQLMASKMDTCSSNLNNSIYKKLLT

PAR-2 [3] = target: T3, PAR-2 (Homo sapiens, UniProt P55085); details: Blackhart et al. 1996; cited from earlier work
T3 sequence (P55085 26-397): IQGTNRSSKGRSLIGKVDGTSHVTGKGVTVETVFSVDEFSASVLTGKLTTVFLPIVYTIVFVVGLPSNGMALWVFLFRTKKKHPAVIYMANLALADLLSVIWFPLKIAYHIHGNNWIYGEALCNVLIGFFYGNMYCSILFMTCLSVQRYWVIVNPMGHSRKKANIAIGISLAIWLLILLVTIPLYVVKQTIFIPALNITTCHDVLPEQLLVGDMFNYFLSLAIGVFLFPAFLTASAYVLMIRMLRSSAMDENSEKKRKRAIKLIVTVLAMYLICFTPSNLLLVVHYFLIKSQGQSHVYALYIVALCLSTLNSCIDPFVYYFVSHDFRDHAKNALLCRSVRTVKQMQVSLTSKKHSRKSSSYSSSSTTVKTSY

PAR-2 [4] = target: T4, PAR-2 (Rattus norvegicus, UniProt Q63645); assay: Intracellular Ca2+ response of primary neuronal cultures; type: cell-based; details: primary neuronal cultures of adult rat DRGs
T4 construct: assessing the response of primary neuronal cultures to trypsin and AcPep; endogenous in cells; host or cells: primary cultures of adult Sprague-Dawley rat DRG neurons
T4 sequence (Q63645 26-397): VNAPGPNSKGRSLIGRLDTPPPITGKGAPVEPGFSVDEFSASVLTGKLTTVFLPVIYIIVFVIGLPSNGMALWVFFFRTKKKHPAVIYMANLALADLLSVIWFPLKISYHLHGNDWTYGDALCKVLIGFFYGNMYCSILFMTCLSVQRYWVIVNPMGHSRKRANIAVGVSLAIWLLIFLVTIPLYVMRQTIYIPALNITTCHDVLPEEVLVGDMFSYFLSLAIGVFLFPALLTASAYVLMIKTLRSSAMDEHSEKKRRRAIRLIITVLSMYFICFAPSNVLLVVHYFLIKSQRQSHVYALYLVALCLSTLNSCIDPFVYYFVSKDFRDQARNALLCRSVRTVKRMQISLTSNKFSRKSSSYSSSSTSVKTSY
Excerpt: In the results which follow, it is shown that activated proteases can have direct effects on sensory neurons, mediated by specific receptors. PAR-1 and PAR-2 are present in rat DRGs (Young et al. 2000). The presence of one of these receptors, PAR-2, in sensory neurons is first confirmed by finding evidence of mRNA and protein expression in adult rat thoracic DRGs. The functional implications of PAR-2 expression are then examined by assessing the response of primary neuronal cultures to trypsin and AcPep. Both agonists increased intracellular Ca^2+ confirming previously reported findings that a functional PAR 2 receptor is present in adult rat DRGs (Steinhoff et al. 2000). Trypsin stimulates both PAR-1 and PAR-2 and therefore an increase in intracellular Ca^2+ can be caused by activation of the two different receptors. […] Therefore the increased intracellular Ca^2+ response to AcPep reflects specific PAR-2 mediated activation.
Cell Culture. Primary cultures of rat DRG neurons were prepared from male adult Sprague Dawley rats (200-250 gm). Following enzymatic treatment and dissociation, neurons were spun through a percoll cushion (Hofbauer et al. 1998) and were plated at a density of 10,000-20,000 neurons/well of a 48 well tissue culture plate. […]

[5] = target: T5, protease activated receptor-2 (PAR-2) of adult rat thoracic dorsal root ganglion neurons (rat, UniProt Q63645 37-397); assay: cell-based or functional assay
T5 sequence (looked up): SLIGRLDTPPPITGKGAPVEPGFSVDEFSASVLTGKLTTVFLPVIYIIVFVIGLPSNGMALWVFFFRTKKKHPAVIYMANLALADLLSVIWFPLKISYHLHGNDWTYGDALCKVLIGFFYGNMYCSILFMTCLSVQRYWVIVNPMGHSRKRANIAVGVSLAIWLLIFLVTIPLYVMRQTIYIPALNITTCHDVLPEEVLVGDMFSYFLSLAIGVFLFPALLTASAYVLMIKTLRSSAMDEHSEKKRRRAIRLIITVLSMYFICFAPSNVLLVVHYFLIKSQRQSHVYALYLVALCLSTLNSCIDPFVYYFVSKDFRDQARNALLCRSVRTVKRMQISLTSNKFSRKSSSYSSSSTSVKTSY

thrombin
concentration without receptor activation (mouse Par2): > 100 nM

RLGILS-amide (RLGILS-NH2) [CoPep]
Capsaicin-evoked c-FOS expression in segments T8-T10 [1]: as strong a stimulant as AcPep alone
CGRP release induced by Capsaicin (50 nM) ([2]; then Capsaicin 50 nM for 10 min in presence of peptide): 4.77 ng/mL
CGRP release induced by KCl (70 mM) ([2]; then KCl 70 mM for 10 min in presence of peptide): 1.8 ng/mL

trypsin: serine protease that stimulates both PAR-1 and PAR-2
activation of PAR-1 (PAR-1): stimulates
activation of PAR-2 (PAR-2 [3]): stimulates
intracellular Ca2+ (PAR-2 [4]): increased
receptor activation, in words (mouse Par2): could be activated with nanomolar concentrations

SLIGRL [PAR-2 activating peptide (AcPep)]
augmentation of Capsaicin-evoked CGRP release (multiple of the basal release), AcPep 10 µM [5]: ~2 fold
augmentation of KCl-evoked CGRP release (multiple of the basal release), AcPep 10 µM [5]: 1.5 fold
